{"source": "patent US20170088616A1", "about": "(Kyowa Kirin, published 2017)", "key": {"[1]": {"target": "T1, Mucin chimeraTIM-3 (human TIM-3 with the mucin domain substituted for mouse TIM-3) (human/mouse chimera)", "T1 construct": "expressed on HEK293F cells", "assay": "flow cytometry, transfected HEK293F cells"}, "[2]": {"target": "T2, human TIM-3 (human, UniProt Q8TDQ0 22-301)", "T2 construct": "endogenous on Daudi cells in the ADCC test; also called HAVCR2; hTIM-3", "assay": "flow cytometry, Alexa-647 labeled antibody on human TIM-3 EoL-1 cells pre-bound with 10 ug/ml unlabeled competitor: anti-DNP (negative control)"}, "[3]": {"target": "T2, human TIM-3", "assay": "flow cytometry, Alexa-647 labeled antibody on human TIM-3 EoL-1 cells pre-bound with 10 ug/ml unlabeled competitor: 644"}}, "data": [{"binder": "antibody 644 (antibody, V domains shown, Hybridoma isotype IgG4; recombinant form has human IgG1 constant region and kappa chain, made in FUT8-/- CHO cells (defucosylated)) VH: QVQLVESGGGLVKPGGSLRLSCAASGFTFSDYYMSWIRQAPGKGLEWVSFISSSGSIIYYADSVKGRFTISRDNAKNSLYLQMNSLRAEDTAVYYCARDGYSSSWYYYGMDVWGQGTTVTVSS VL: not shown", "values": [{"measurement": "binding result", "setting": "[1]", "value": "binds"}, {"measurement": "binding result", "setting": "[2]", "value": "binds"}]}, {"binder": "antibody 4545 (antibody, V domains shown, Hybridoma isotype IgG2; recombinant form has human IgG1 constant region and kappa chain, made in FUT8-/- CHO cells (defucosylated)) VH: QVQLQESGPGLVKPSETLSLTCTVSGGSFSRGGYYWNWIRQPPGKGLEWIGYIYYSGSTNYNPSLKSRVTISLDTSKNQFSLKLSSVTAADTAVYYCARDHYSSSWTFDYWGQGTLVTVSS VL: EIVLTQSPATLSLSPGERATLSCRASQSVSSYLAWYQQKPGQAPRLLIYDASNRATGIPARFSGSGSGTDFTLTISSLEPEDFAVYYCQQRSNWPPTFGQGTKLEIK", "values": [{"measurement": "binding result", "setting": "[1]", "value": "binds"}, {"measurement": "binding result", "setting": "[2]", "value": "binds"}]}, {"binder": "antibody 8213 (antibody, V domains shown, Hybridoma isotype mouse IgG2b; recombinant form has mouse IgG2a constant region and kappa chain, made in HEK293F cells) VH: QVQLQQPGAELVKPGASVKLSCKASGYTFTSYWMHWVKQRPGQGLEWIGEINPSNGRTNYNEKFKTKATLTVDKSSSTAYMQLSSLTSEDSAVYYCAGGYYLYFDYWGQGTTLTVSS VL: DILMTQSPSSMSVSLGDTVNITCHASQGIRINIGWLQQKPGKSFKGLIYHGTNLEDGVPSRFSGSGSGPDYSLTISSLESEDFADYYCVQYGQFPWTFGGGTKLEMK", "values": [{"measurement": "binding result", "setting": "[1]", "value": "binds"}, {"measurement": "binding result", "setting": "[2]", "value": "binds"}]}, {"binder": "antibody 512 (antibody, V domains shown, Hybridoma isotype IgG1; recombinant form has human IgG1 constant region and kappa chain, made in FUT8-/- CHO cells (defucosylated)) VH: QVQLVESGGGVVQPGRSLRLSCAASGFTFNSYGMHWVRQAPGKGLEWVAVIWYDGSNKYYGDSVKGRFTISRDNSKNTLYLQMNSLRAEDTAVYYCAIWFGEMFSEYFQHWGQGTLVTVSS VL: AIQLTQSPSSLSASVGDRVTITCRASQGISSALAWYQQKPGKAPKLLIYDASSLESGVPSRFSGSGSGTDFTLTISSLQPEDFATYYCQQFNSYPLTFGGGTKVEIKR", "values": [{"measurement": "binding result", "setting": "[1]", "value": "binds"}, {"measurement": "binding result", "setting": "[3]", "value": "binds"}]}]}
